Assay results from the nanobody polyreactivity screen of Harvey et al. (2022).

Experiment: yeast display, Sf9 membrane polyspecificity reagent, FACS + sequencing; frameworks hold sequencing errors
How it was run: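 Nanobodies from a synthetic yeast display library (Saccharomyces cerevisiae BJ5465), induced 36–48 hours with galactose, were stained 1 hour at 4 °C with 10% biotinylated, detergent-solubilized Sf9 membrane reagent, enriched on streptavidin microbeads, then FACS-sorted. Anti-HA (expression) and streptavidin (reagent binding) fluorescence set low and high (top ~1%) gates. Polyreactivity labels come from the gate of origin. Genes were colony-PCR amplified, MiSeq 2 × 250 sequenced and filtered by CDR length.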

Sequence	polyreactivity (PSR sort gate)
QVQLVESGGGLVQAGGSHRLSCAASGRTFLTNAMGWYRQAPGKERELVAAIRWSGTSTYYADSVKGRFTISRDNAKNTVYLQMNSLKPEDTAVYYCAARKVYGSKYGYWGQGTQVTVSS	high polyreactivity
QVQLVESGGGLVQAGGSHRLSCAASGRTFRQYAMGWYRQAPGKERELVATISSGGSTYYADSVKGRFTISRDNAKNTVYLQMNSLKPEDTAVYYCAAPYWARKYWRKFGPFDYWGQGTQVTVSS	low polyreactivity
QVQLVESGGGLVQAGGSHRLSCAASGRTFWYYTMGWYRQAPGKERELVAAINWRGGTTYYADSVKGRFTISRDNAMNTVYLQMNSLKPEDTAVYYCAATHWAYSRVPYDYWGQGTQVTVSS	high polyreactivity
QVQLVESGGGLVQAGGSHRLSCAASGRTLGGYAMGWSRQAPGKERELVAAISYSGGSTYYADSVKGRFTISRDNAKNTVYLQMNSLKAEFTAVYYCARDYSWYYYGSQLFAHDYWGQGTQVTVSS	low polyreactivity
QVQLVESGGGLVQAGGSHRLSCAASGRTYVYNAMGWYRQAPGKERELDAGITNGGSTNYADSVKGRFTISRDNAKNTVYLQMNSLKPEDTAVYYCAADSRVYPYYFGDFGYWGQGTQVTVSS	low polyreactivity
QVQLVESGGGLVQAGGSHRLSCAASGSIFALYAMGWYREAPGKEREFVAAISWNGGRTYYADSVKGRFTISRDNAKNTVYLQMNSLKPEDTAVYYCAARSWYAYDYWGQGTQVTVSS	high polyreactivity
QVQLVESGGGLVQAGGSHRLSCAASGSILSYYAMGWYRQAPGQEREFVAAIRTRGGSTYYADSVKGRFTISRDNAKNTVYLQMYSLKPEDTAVYYFAARTRPDRVRQGRYYYWGQGTQVTVSS	high polyreactivity
QVQLVESGGGLVQAGGSHRLSCAASGSTFAYYAMGWYRQAPGKERELVATISERGGTTYYADSVKGRFTLSRDNAKNTVYFQMNILKPEVTAVYYCAADHSGYWTYYYDYYYWGQGTQVNVSS	low polyreactivity
QVQLVESGGGLVQAGGSHRLSCAASGSTLTWYAMGWYRQAPWKEWELVDTISSSTGSTRYADSVKGRFTISRDNAKNSVYLRINSLKPDDTAVYYCAKAYALRYARGRARYDYDFWGQGTQVNVSS	low polyreactivity
QVQLVESGGGLVQAGGSHRLSCAASGSTSGINAMGWYRQAPGKERELVAAIRLSGGRTYYADSVKGRFTISRDNAKNTVYLQMNSLKPEDTAVYYCAARYPSRVGYYYLGQGTQVTVSS	high polyreactivity
QVQLVESGGGLVQAGGSHRLSCAASGSTVGRNAMGWYGQAPGKERELVAAITASGGTTYYADSVKGRFTISRDNAKNTVYLQMNSLKPEDTAVYYCARAGHFSFKYDYWGQGTQVTVSS	low polyreactivity
QVQLVESGGGLVQAGGSHRLSCAASGYIFDYNDMGWSRQAPGKERELVAAITYSRGSTYYADSVKGRFTISRDNAKNTVYLQMNSLQPEDTAVYYCAATFRSRGYSARRYYYWGQGTQVTVST	high polyreactivity
QVQLVESGGGLVQAGGSHRLSCAASRSIFPYNAKGWYRQAPGKATELVATISNSGGSTYYADSVKGRFTISRDTAMNTVYLQMNSLKPEDTAVYYCADDRSVYLPAPDPALDYWGQGTQLTVSS	low polyreactivity
QVQLVESGGGLVQAGGSHRLSCAAYGRIFYYYVMGWYRQAPGKERELVAVIDWSGGSTYYADSVKGRFTISRDNAKYTVYVQMNCLKPDDTAVYYCAKVWLNFSLAYEDYDYWGQGTQVNVSS	low polyreactivity
QVQLVESGGGLVQAGGSHRLSCASYGSIFRCYAKGWYRQAPGKERELVAGITRSGGSTYYADSVKGRFTISRDNAKNTVYLQLNRLKPEDTAVYYCNADLYRKRAWVRRDGSWGHGTQVTVSS	low polyreactivity
QVQLVESGGGLVQAGGSHRLSSAASGSIIPSYAMGWYRQAPGKERELVAAITTSGGNTFYADSVKGRFTISRDNAKNTVYLQMNSLKPEDTAVYYCAADYSPYTVEYDYWGQGTQVTVSS	low polyreactivity
QVQLVESGGGLVQAGGSHRLTCAASGITFTVNAMGWYRQAPRKERELVAAISNDGSTYYADSVKGRFTISRDYAKNTVYLQMNSLKPEDTAVYYCAADTWDDFGPYGYDYWGQGTQVTVSS	low polyreactivity
QVQLVESGGGLVQAGGSILLSCAASGFIFLYYAMGWYRQAPGKERELVADISRGADTKYADTVKGRFTISRDNAKNTVYLQMNSLKPEDTAVYYCATVITTFWFPYPGVELGYWGQGTQVNVSS	low polyreactivity
QVQLVESGGGLVQAGGSIRLSCAASGFIFFSNAMGWYRQAPGKERELVAVIDRATSTYYADSVKGRFTISRDNAKNTVYLQMNSLKPEDTAVYYCNADGEEVYDFNYFLSFKGDYWGQGTQVTVSS	low polyreactivity
QVQLVESGGGLVQAGGSIRLSCAASGFTFKGNVMGWYRQAPGKERELVAAISRSGGRTYYADSVKGRFTISRDNAKNTVYLQMNSLKPEDTAVYYCAAVVQSSEPVEYDYWGQGTQVTVSS	high polyreactivity
QVQLVESGGGLVQAGGSIRLSCAASGGTFKTYVMGWNRQAPVKERELVAAINTSGTSTYYADSVKGRFTISRDNAKIKVYLQMNSLKPEDTAVYYCATRYRYTYYWGQGTQVTVSS	high polyreactivity
QVQLVESGGGLVQAGGSIRLSCAASGINFYGNAMGWYRQAPGKETELVAAISWSGSSTYYADSVKGRFTISRDNAKNTVYFQMLSLKPEDTAVYYCKKATSSVRYLIYYYWGQGTQVTVSS	high polyreactivity

Sequence	polyreactivity (PSR sort gate)
QVQLVESGGGLVQAGGSIRLSCAASGLTFRWYAMGWYRQAPGKESELVAAISSGGRTYYADSVKGRFTISRDNAKNTVYLLMNSLKPEDTAVYYSNKRTLDYGFGSYGREYWGQGTQVTVSS	high polyreactivity
QVQLVESGGGLVQAGGSIRLSCAASGNTFRWYAMGWYRQAPGKEREFVAAISSSGGSTYYADSVKGRFTISRDNAKNTVYLQMNSLKPEDTAVYYCTAASVTRHVSFATDYEYWGQGTQVTVSS	high polyreactivity
QVQLVESGGGLVQAGGSIRLSCAASGRIFGRNAMGWYRQAPGKERELVAAISSSGGTYYADSGKGRFTISRDNAKNTVYLQMNSLKPEDTAVYYCNGRVRTQQRWVDYWGQGTQVTVSS	high polyreactivity
QVQLVESGGGLVQAGGSIRLSCAASGRIFNHNSMGWYRQAPGKERELVAAITKSGGSTYYADSVKGRFTISRDNAKNTVYFQINSLITEDTAVYYCATRLWKIPGAMYYWGQGTQVTVSS	high polyreactivity
QVQLVESGGGLVQAGGSIRLSCAASGRIFVRNAMGWYRQAPGKEREMVAAISWSSGGTYYADSVKGRFTISRDNAKNTVYLQMNSLKPEDTAVYYCNADPSRAGDYWGQGTQVTVSS	low polyreactivity
QVQLVESGGGLVQAGGSIRLSCAASGRTFDGNALGWYRKAPGKERELVAAITSGGSTNYAYSVKGRFTISRDNAKNTVYVQRNSLKPEDTAVYYCAAERWYGYSHSDFGYWGQGTQVTVSS	high polyreactivity
QVQLVESGGGLVQAGGSIRLSCAASGRTFGYYAMGWYRQAPGKERELVAAISWSGGRTYYADSVKGRFTISRDNAKNTVYLQMNSLKPEDTAVYYCAAQTAGFWYDYWGQGTQVTVSS	high polyreactivity
QVQLVESGGGLVQAGGSIRLSCAASGRTLPEYVMGWYRQAPGKERELVAAITTAGSTNYADSVKGRFTISRDNAKNTVYLQINCLKPEDTAVYYCAGTTRSRGFRDIDYWGQGTQVTVSS	low polyreactivity
QVQLVESGGGLVQAGGSIRLSCAASGSTISHNAMGWYRQAPGKERELVAAITRGDSTNYADSVKGRFTNTRDNAKNTVYLEMNSLKPEDTAVYYCNANKWYRYDYWGQGTQVTVSS	low polyreactivity
QVQLVESGGGLVQAGGSIRLSCDASGNTFCTYAMGWYRQAPGKERELVATSAKRAGSTYYADSVKGRFTISRDNAKNTVFLQLKCLKPEDTAFYDCARDAYSVYYYVFLHWEYDYWGQVTQVTVSS	high polyreactivity
QVQLVESGGGLVQAGGSIRLSSAASGFTFYPYMGWYRQAPVKERELVATITWIGDDTYYADSVKGRFTISRDNAKNTVYLQMNSLKPEDTAVYYCNTDVDDTLYYSPMDYWGQGTQVTVSS	low polyreactivity
QVQLVESGGGLVQAGGSLCLSCAASGRTFIRNAMGWYRPAPGKERELVAAINSGGITNYADSVKGRFTISRDNAKNTVYLQMNSLKPEDTALYYCNARQVLYGLYLRAYPYEYWGQGTQVTVSS	low polyreactivity
QVQLVESGGGLVQAGGSLGLSCAASGFTVYRYAMGWSRQAPGKERELVARTYYADSVKRRFTISRDNAKNTVYLQMNSLKPEDTAVYYCNIDLELEYRYEYWGQGTQVTVSS	low polyreactivity
QVQLVESGGGLVQAGGSLGLSCAASGRIFGVYAMGWYRQAPGTERELVAAIWSGGSTYYADSVKGRFTISRDNAKNTVYLQMNSLKPEDTAVYYCAADDAYSHRSLYSHNDYWGQGTQVTVSS	low polyreactivity
QVQLVESGGGLVQAGGSLGLSCAASGSIFGYYALGWYRPAPGKERELVAAISWSDGSTYYADSVKGRFTISRDNAKNTVYLQMNSLKPEDTAVYDCAARFTPYITSADGHYDYWGQGTQVTVSS	low polyreactivity
QVQLVESGGGLVQAGGSLGLSCAASGSIFSDYAMGWYRQATGKERELVAAITQSGGSTYADSVKGRFTISRDNAKNTVYLQMISLKPEDTAVYYCAADEVPGFGYPPYPWFDYWGQGTQVTVSS	low polyreactivity
QVQLVESGGGLVQAGGSLGLSCAASGSTFRSYAMGWYRQAPGKERELVAAISSAGTTYYADSVKGRFTISRDNAKNTVYLQMNSLKPEDTAVYYCAAKYSYYTYAGDGGLFSWSYGYWGQGTQVTVSS	low polyreactivity
QVQLVESGGGLVQAGGSLGLSCAAYGSIFVGNAMGWYRQAPGNERELVAAICRSGGITYYADSVKGRFTISRDNAKNTVYLQMNSLKPEDTAVYYCAARHRYYYQYRSDYWGQGTQVTVSS	high polyreactivity
QVQLVESGGGLVQAGGSLGLTCAASGSIFYGYAMAWYRPAPGKERELVAAISSSGGNTYYADSVKGRFTISRDNAKNTVYLQMNSLKPEDTAVYYCNKVYYQVKYDYWGQGTQVSVSS	low polyreactivity
QVQLVESGGGLVQAGGSLHLSCAASGFTFDGYTMGWYRQAPGKERELVATITTGGSTYYADSVKGRFTISRDNAKNTVYLQMNSLKPEDTAVYYCAADYRGVPYIKWPKDFEYWGQGTQVTVSS	low polyreactivity
QVQLVESGGGLVQAGGSLHLSCAASGRIFGKYAMGWYRQAPGKEREFVAAIRSSDGNTYYADSVKGRFTISRDNAKNTVYLQMNSLKPEDTAVYYCAARGTLWTYGYWGQGTQVTVSS	high polyreactivity
